Test results as given in patent US20170260257A1 (GREEN CROSS, published 2017).

Experiments:
[1] = biological target: HBsAg mutant of patient HCC 11 (hepatocellular carcinoma) (hepatitis B virus); assay: sandwich ELISA: plate coated with the antibody, patient blood, detection with sheep anti-HBsAg/peroxidase
[2] = biological target: HBsAg mutant of patient HCC 1 (hepatocellular carcinoma) (hepatitis B virus); assay: as above
[3] = biological target: HBsAg mutant of patient LC 32 (liver cirrhosis) (hepatitis B virus); assay: as above
[4] = biological target: HBsAg mutant of patient CH 62 (chronic hepatitis) (hepatitis B virus); assay: as above
[5] = biological target: HBsAg mutant of patient LC 98 (liver cirrhosis) (hepatitis B virus); assay: as above
[6] = biological target: HBsAg mutant of patient LC 59 (liver cirrhosis) (hepatitis B virus); assay: as above
[7] = biological target: T1, HBsAg mutant of patient CH 15 (chronic hepatitis) (hepatitis B virus); assay: as above
T1 construct: Positions count on the S (surface) protein

[8] = biological target: HBsAg mutant of patient CH 32 (chronic hepatitis) (hepatitis B virus); assay: as above
[9] = biological target: HBsAg mutant of patient HCC 22 (hepatocellular carcinoma) (hepatitis B virus); assay: as above
[10] = biological target: HBsAg mutant of patient HCC 94 (hepatocellular carcinoma) (hepatitis B virus); assay: as above
[11] = biological target: HBsAg mutant of patient CH 75 (chronic hepatitis) (hepatitis B virus); assay: as above
[12] = biological target: HBsAg mutant of patient LC 53 (liver cirrhosis) (hepatitis B virus); assay: as above
[13] = biological target: HBsAg mutant of patient CH 33 (chronic hepatitis) (hepatitis B virus); assay: as above
[14] = biological target: HBsAg mutant of patient CH 34 (chronic hepatitis) (hepatitis B virus); assay: as above
[15] = biological target: HBsAg of YMDD mutant virus, patient blood sample YMDD #4 (hepatitis B virus); assay: as above
[16] = biological target: HBsAg of YMDD mutant virus, patient blood sample YMDD #6 (hepatitis B virus); assay: as above
[17] = biological target: HBsAg of YMDD mutant virus, patient blood sample YMDD #12 (hepatitis B virus); assay: as above
[18] = biological target: HBsAg of YMDD mutant virus, patient blood sample YMDD #10 (hepatitis B virus); assay: as above
[19] = biological target: HBsAg of YMDD mutant virus, patient blood sample YMDD #3 (hepatitis B virus); assay: as above
[20] = biological target: HBsAg of YMDD mutant virus, patient blood sample YMDD #1 (hepatitis B virus); assay: as above
[21] = biological target: HBsAg of YMDD mutant virus, patient blood sample YMDD #8 (hepatitis B virus); assay: as above
[22] = biological target: HBsAg of YMDD mutant virus, patient blood sample YMDD #11 (hepatitis B virus); assay: as above
[23] = biological target: HBsAg of YMDD mutant virus, patient blood sample YMDD #5 (hepatitis B virus); assay: as above
[24] = biological target: HBsAg of YMDD mutant virus, patient blood sample YMDD #7 (hepatitis B virus); assay: as above
[25] = biological target: HBsAg of YMDD mutant virus, patient blood sample YMDD #14 (hepatitis B virus); assay: as above
[26] = biological target: HBsAg of YMDD mutant virus, patient blood sample YMDD #13 (hepatitis B virus); assay: as above
[27] = biological target: HBsAg of YMDD mutant virus, patient blood sample YMDD #9 (hepatitis B virus); assay: as above
[28] = biological target: G145R HBsAg mutant of patient L** (HBV recurred after liver transplantation) (hepatitis B virus); assay: sandwich ELISA: plate coated with the antibody (immobilized antibody rHBIG), patient blood, detection with sheep anti-HBsAg/peroxidase
[29] = biological target: T2, G145R HBsAg mutant of patient S** (HBV recurred after liver transplantation) (hepatitis B virus); assay: as above
T2 construct: Position 145 of the HBV surface protein

[30] = biological target: G145R HBsAg mutant of patient B** (HBV recurred after liver transplantation) (hepatitis B virus); assay: as above
[31] = biological target: G145R HBsAg mutant of patient W** (HBV recurred after liver transplantation) (hepatitis B virus); assay: as above
[32] = biological target: G145R HBsAg mutant of patient C** (HBV recurred after liver transplantation) (hepatitis B virus); assay: as above

B1: the antibody of the present invention comprising a heavy-chain variable region having amino acid sequence of SEQ ID NO: 2 and a light-chain variable region … (antibody, V domains shown)
VH: EVQLVESGGGLVKPGGSLRLSCSASGFSLTKYKMTWVRQAPGKGLEWVSSISSTSRDIDYADSVKGRFTISRDNAKNSLFLQMSSLRVDDTAVYYCTRDGWLWGWDVRSNYYYNALDVWGQGTTVTVSS
VL: DIVVTQSPSSLSASVGDRVTITCRASQGIYNSIAWYQQKPGKAPKLLLYSTSTLLSGVPSRFSGSGSGTDYTLTITNLQPEDFATYYCQQYFVTPETFGQGTKLEIKR
notes: Captured with goat anti-human IgG (Fc specific) agarose and compared with a human IgG1 isotype control, so a human IgG; also called rHBIG
- ELISA [1]: 3.36
- ELISA [2]: 3.61
- ELISA [3]: 2.73
- ELISA [4]: 3.08
- ELISA [5]: 3.55
- ELISA [6]: 3.63
- ELISA [7]: 3.06
- ELISA [8]: 2.95
- ELISA [9]: 3.52
- ELISA [10]: 3.56
- ELISA [11]: 2.93
- ELISA [12]: 3.5
- ELISA [13]: 2.83
- ELISA [14]: 1.37
- A450 [15]: 1.02 A450
- A450 [16]: 1.04 A450
- A450 [17]: 0.876 A450
- A450 [18]: 1.13 A450
- A450 [19]: 0.957 A450
- A450 [20]: 1.16 A450
- A450 [21]: 1.14 A450
- A450 [22]: 0.786 A450
- A450 [23]: 0.356 A450
- A450 [24]: 1.1 A450
- A450 [25]: 0.815 A450
- A450 [26]: 1.07 A450
- A450 [27]: 0.834 A450
- ELISA signal (name and unit not given) [28]: 2.72
- ELISA signal (name and unit not given) [29]: 2.53
- ELISA signal (name and unit not given) [30]: 3.08
- ELISA signal (name and unit not given) [31]: 2.66
- ELISA signal (name and unit not given) [32]: 2.47
